Measurements: patent US20250179176A1, “ANTI-TIGIT ANTIBODIES AND USES OF THE SAME” (ARCUS BIOSCIENCES, INC., priority 2022, published 2025)
Entries after “also recorded” stand apart in the source; their conditions may differ.

Experiments:
[1] = system: metastatic (Stage IV) squamous or non-squamous NSCLC; assay: Phase 2 study in front-line NSCLC (ARC-7), efficacy; type: in vivo, human
From the text: Participants were randomized 1:1:1 across the three study arms and treated until disease progression or loss of clinical benefit. […] Patients in the zimberelimab monotherapy arm with confirmed progression had the option to cross over to the triplet arm. Co-primary endpoints were objective response rate (ORR) and progression-free survival (PFS). Secondary endpoints included safety, duration of response and disease control rates. Additional assessments of response/on-treatment effects may include measures of immune cell activation, immune cell suppression, immune cell proliferation, T cell receptor dynamics, and/or increases in memory and antigen experienced T cells in periphery or tumor microenvironment, as well as molecular response assessment by ctDNA dynamics and/or changes in tumor cell markers or gene expression.
Further data were obtained from an interim analysis with a data cutoff of Aug. 31, 2022.

human FcγR1 = human FcγR1 (Homo sapiens, UniProt P12314); assay: ELISA binding of domvanalimab to FcγR; settings: up to 1 μM, vs human IgG1 control
human FcγR1, sequence (P12314 16-374): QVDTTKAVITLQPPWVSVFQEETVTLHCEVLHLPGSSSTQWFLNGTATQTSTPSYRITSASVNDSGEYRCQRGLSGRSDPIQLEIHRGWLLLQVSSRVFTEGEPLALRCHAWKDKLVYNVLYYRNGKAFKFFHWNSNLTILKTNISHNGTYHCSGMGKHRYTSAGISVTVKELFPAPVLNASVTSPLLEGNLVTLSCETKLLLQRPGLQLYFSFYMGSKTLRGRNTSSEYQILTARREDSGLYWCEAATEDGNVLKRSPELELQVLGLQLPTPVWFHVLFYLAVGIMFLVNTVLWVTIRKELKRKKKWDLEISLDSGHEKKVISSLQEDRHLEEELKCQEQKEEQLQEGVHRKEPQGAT
Protocol: Antibody-dependent cell mediated cytotoxicity (ADCC) is mediated by the antibody Fc domain binding to a FcγR. […] Human IgG1 was used as a positive control and buffer containing no antibody was used as a negative control.
Briefly, ELISA plate coating solution was prepared by diluting human Fc-gamma receptors in PBS to a final concentration of 1 μg/mL (FcγR1) or 4 μg/mL (Fcγ R2A, 2B, 3A and 3B). 30 μL of coating solution was added to each well of the test plates, and the ELISA plates were then incubated overnight at 4° C. to facilitate receptor binding. The following day, ELISA plates were washed four times with 80 μL wash buffer (1×PBS+0.05% Tween-20) per well, prior to blocking with 80 μL blocking buffer (1×PBS+2% BSA) per well at room temperature for 2 hours.
Plates were then incubated for an hour prior to removal of well contents by aspiration followed by four washes with wash buffer. 30 μL of anti-human IgG HRP conjugate at 1:2500 dilution in antibody buffer was added to each of the washed wells. Plates were further incubated at room temperature for an additional 30 minutes. […] Luminescent signals were captured using an Envision Multimode Reader (Perkin Elmer) system approximately 10 minutes after substrate addition.

TIGIT = biological target: T1, TIGIT (Homo sapiens, UniProt Q495A1); assay: TIGIT receptor occupancy (RO) assay in whole blood by flow cytometry; type: in vivo
T1 construct: select peripheral lymphocyte populations in whole blood collected from patients enrolled in a clinical study; endogenous in cells; host or cells: peripheral lymphocytes in whole blood of dosed patients
T1 sequence (Q495A1 22-244): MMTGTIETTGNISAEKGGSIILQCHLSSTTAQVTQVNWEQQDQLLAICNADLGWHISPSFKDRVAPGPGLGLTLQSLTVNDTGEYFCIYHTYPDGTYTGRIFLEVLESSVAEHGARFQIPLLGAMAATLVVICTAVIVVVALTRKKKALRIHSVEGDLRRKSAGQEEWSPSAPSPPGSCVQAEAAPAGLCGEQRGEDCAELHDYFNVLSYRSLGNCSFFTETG
Protocol: The RO assay is depicted in FIG. 3A and FIG. 3B.
The RO of domvanalimab on select peripheral lymphocyte populations in whole blood collected from patients enrolled in a clinical study was assessed by flow cytometry using pre- and post-dose whole blood samples. […] RO was determined on various immune cell types using antibodies specific for surface markers CD3, CD4, CD8, CD56, FoxP3, and Ki67. RO was calculated as follows: […]

[2] = system: CD4+ T cells, CD8+ T cells, and Tregs; assay: Peripheral T cell absolute counts and frequencies (Trucount, flow cytometry); type: in vivo, human; settings: humans
Protocol: White blood cell counts for 11 patients have been followed for up to 85 days of treatment. See Table 17 for additional patient details. Cell counts were assessed in pre- and post-dose whole blood patient samples using commercially available Trucount tubes (BD Biosciences). CD45, CD3, CD4, CD8, CD25, and CD127 antibodies were used to detect peripheral blood T cells and Tregs using flow cytometry. The antibody cocktail and […] of whole blood was added to Trucount tubes, vortexed, and incubated for 15 minutes at room temperature. The stained whole blood was lysed using 900µl of 1×BD FACs Lyse solution followed by vortexing, and incubation for 15 minutes at room temperature. Absolute counts were calculated as detailed in the Trucount technical data sheet. Briefly, the absolute count of a cell population (A) was obtained by dividing the number of positive cells events (X) by the number of bead events (Y), and then multiplying by the BD Trucount bead concentration (N/V, where N is the number of beads per test and V is the test volume). A=X/Y×N/V. Absolute cell count was then reported per μl of whole blood (WB).
Absolute cell counts were not measured in all patients due to limited sample collection. […] Frequencies of different populations were determined relative to a parent population and each timepoint was normalized to baseline (C1D1 predose) to compute fold change.

[3] = Pharmacokinetics of domvanalimab in humans; type: in vivo, human; settings: Q2W
From the text: The present example illustrates the pharmacokinetics of domvanalimab in human subjects. […] Subjects had ≥1 measurable lesion per RECIST v1.1 and ECOG performance status score 0-1.
Examination of the mean PK plots indicated similar PK across the dosing regimens.

[4] = efficacy population, later cutoff
[5] = monotherapy cohort (N=10), initial cutoff
[6] = monotherapy cohort (N=10), Grade 1
[7] = first cycle, over 20-fold dose range 0.5-10 mg/kg

Q: Which “patients with partial response remaining on treatment” value ([1]; ITT-13, cutoff Aug. 31, 2022) does the source give for “zimberelimab: antagonistic PD-1 antibody, immune checkpoint inhibitor” here?
A: The value was 5 n.

Q: And the “patients with stable disease remaining on treatment” value ([1]; ITT-13, cutoff Aug. 31, 2022)?
A: Its value is 3 n.

Q: What about the “6-month progression-free survival rate” value ([1]; Kaplan Meier, ITT-13) of the same molecule?
A: The value was 43%.

Q: And the “median PFS” value ([1]; Kaplan Meier, ITT-13)?
A: Its value is 5.4 months.

Q: What about the “6-mo PFS % (95% CI)” value [1, 4] of the same molecule?
A: Its value is 43 (27, 59) %.

Q: And the “CORR (confirmed Objective Response Rate, per RECIST v1.1)” value [1, 4]?
A: The value was 12 (27) n (%).

Q: And the “Complete Response” value [1, 4]?
A: The value was 0 (0) n (%).

Q: What about the “Not Evaluable” value [1, 4] of the same molecule?
A: Its value is 7 (16) n (%).

Q: And the “Partial Response” value [1, 4]?
A: The value was 12 (27) n (%).

Q: What about the “Progressive Disease” value [1, 4] of the same molecule?
A: Its value is 11 (25) n (%).

Q: And the “Stable Disease” value [1, 4]?
A: Its value is 14 (32) n (%).

Q: What about the “median PFS” value [1, 4] of the same molecule?
A: The value was 5.4 mo.

B1: domvanalimab: anti-TIGIT antibody with engineered IgG1 Fc, reduced FcγR binding; heavy chain SEQ ID NO: 12, light chain SEQ ID NO: 13 (antibody)
heavy: EVQLVESGGGLVQPGGSLRLSCAASGFTFSNFGMHWVRQAPGKGLEWVAFISSGSSSIYYADTVKGRFTISRDNAKNSLYLQMNSLRAEDTAVYYCARMRLDYYAMDYWGQGTMVTVSSASTKGPSVFPLAPSSKSTSGGTAALGCLVKDYFPEPVTVSWNSGALTSGVHTFPAVLQSSGLYSLSSVVTVPSSSLGTQTYICNVNHKPSNTKVDKKVEPKSCDKTHTCPPCPAPEAAGGPSVFLFPPKPKDTLMISRTPEVTCWVDVSHEDPEVKFNWYVDGVEVHNAKTKPREEQYNSTYRWSVLTVLHQDWLNGKEYKCKVSNKALPAPIEKTISKAKGQPREPQVYTLPPSRDELTKNQVSLTCLVKGFYPSDIAVEWESNGQPENNYKTTPPVLDSDGSFFLYSKLTVDKSRWQQGNVFSCSVMHEALHNHYTQKSLSLSPGK
light: DIQMTQSPSSLSASVGDRVTITCRASKSISKYLAWYQQKPGKAPKLLIYSGSTLQSGVPSRFSGSGSGTDFTLTISSLQPEDFATYYCQQHNEYPWTFGGGTKVEIKRTVAAPSVFIFPPSDEQLKSGTASWCLLNNFYPREAKVQWKVDNALQSGNSQESVTEQDSKDSTYSLSSTLTLSKADYEKHKVYACEVTHQGLSSPVTKSFNRGEC
Q: With B1 as the molecule, how does the “binding to human FcγR1” value (human FcγR1) read?
A: The value was “no significant binding; also recorded: does not bind”.

Q: What about the “RO across all dose groups” value (TIGIT; 24 participants, 0.5-20 mg/kg Q2W/Q3W/Q4W, all post-dose time points) of the same molecule?
A: Its value is “maximal RO”.

Q: And the “TIGIT receptor occupancy (RO)” value (TIGIT; Q2W, monotherapy and combination cohorts, all cell types, 1 hour after end of infusion of first dose)?
A: The value was no less than 98%.

Q: And the “RO at later time points” value (TIGIT; Q2W, pre-dose Day 15, 29, 57, 85)?
A: The value was “complete RO was maintained”.

Q: And the SAE decreased appetite (monotherapy cohort (N=10))?
A: Its SAE decreased appetite is 10%.

Q: What about the SAE dyspnea (monotherapy cohort (N=10)) of the same molecule?
A: The SAE dyspnea was 10%.

Q: What about the SAE hyponatremia (monotherapy cohort (N=10)) of the same molecule?
A: Its SAE hyponatremia is 10%.

Q: What about the SAE peritonitis bacterial (monotherapy cohort (N=10)) of the same molecule?
A: Its SAE peritonitis bacterial is 10%.

Q: And the SAE pleural effusion (monotherapy cohort (N=10))?
A: The SAE pleural effusion was 10%.

Q: What about the “discontinued domvanalimab due to a TEAE” value (monotherapy cohort (N=10)) of the same molecule?
A: The value was 30%.

Q: What about the “dose delays/interruptions due to a TEAE” value (monotherapy cohort (N=10)) of the same molecule?
A: Its value is 10%.

Q: What about the “SAEs considered related to domvanalimab” value [5] of the same molecule?
A: The value was “none”.

Q: And the “TEAE dyspnea regardless of causality” value [5]?
A: The value was 30%.

Q: And the “all other TEAEs, each” value [5]?
A: The value was no more than 10%.

Q: What about the “participants with SAEs” value [5] of the same molecule?
A: The value was 40%.

Q: What about the “participants with at least 1 TEAE” value [5] of the same molecule?
A: Its value is 100%.

Q: What about the “participants with domvanalimab-related TEAEs” value [5] of the same molecule?
A: The value was 30%.

Q: And the “total number of SAEs” value [5]?
A: Its value is 5.

Q: And the “domvanalimab-related TEAE fatigue” value [6]?
A: Its value is 10%.

Q: And the “domvanalimab-related TEAE hyperglycemia” value [6]?
A: The value was 10%.

Q: And the “domvanalimab-related TEAE nausea” value [6]?
A: The value was 10%.

Q: What about the “domvanalimab-related TEAE pruritus” value [6] of the same molecule?
A: The value was 10%.

Q: What about the “deaths due to treatment-related AEs” value (whole study, initial cutoff) of the same molecule?
A: The value was “No deaths”.

Q: And the “depletion of peripheral T cells” value [2]?
A: The value was “does not deplete”.

Q: And the “dose proportionality of PK” value ([3]; 0.5-10 mg/kg)?
A: The value was “roughly dose proportional”.

Q: And the “increase of concentration at end of infusion (Ceoinf)” value [3, 7]?
A: The value was 15 fold.

Q: And the “increase of concentration at the end of the dosing interval (Ctrough)” value [3, 7]?
A: Its value is 27 fold.

Q: And the “increase of mean area under the concentration time curve over the first dosage interval” value [3, 7]?
A: Its value is 17 fold.
